± gives the uncertainty stated by the source.
Assay: protein stability index of a GFP-peptide fusion (yeast GPS) (PSI 1-4); higher = more stable; sorted into four equal gates, so the index is relative within each strain
Method in brief: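 The protein stability index of a peptide was calculated by multiplying its read frequency in each gate by that gate's number and adding the products. The peptides were tiled 17-residue stretches of yeast proteins, fused downstream of GFP on a Cherry-expressing plasmid and carried in yeast as a pooled library. Mid-log cultures in leucine-free medium were sorted into four equal gates by GFP/Cherry ratio, and each gate's plasmids were PCR-amplified and Illumina-sequenced.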

Sequence | protein stability index (doa10∆) | protein stability index (pdr5∆) | protein stability index (san1∆) | protein stability index (ubr1∆)
WNSLMYALQSVKLPRAF [RRP43] | 1.31 ± 0.066 | 1.34 ± 0.083 | 1.2 ± 0.12 | 1.29 ± 0.051
KQTKLRKEKEKKPGKIA [SMB1] | – | 3.36 ± 0.15 | 2.51 ± 0.29 | –
SELLARDIFQEDEENSD [RGR1] | 3.48 ± 0.12 | 3.37 ± 0.12 | 3.02 ± 0.14 | 3.27 ± 0.17
WCAGAGTAADTEAVTQL [PUP1] | 3.16 ± 0.24 | 2.94 ± 0.23 | 2.78 ± 0.21 | –
PDAKIQVRRDIPSAAFN [YMR129W/POM152] | 2.17 ± 0.061 | 1.89 ± 0.098 | 1.63 ± 0.11 | 3.24 ± 0.088
STPENVPRLFDLVKPKN [SMC4] | 2.65 ± 0.077 | 3.11 ± 0.087 | 2.65 ± 0.12 | 2.81 ± 0.053
DGTGVRVIVAGTLDINP [FAS1] | 2.36 ± 0.068 | 2.87 ± 0.071 | 2.99 ± 0.065 | 2.59 ± 0.061
PQKSSSKGFVFNSVQKK [YAR002W/NUP60] | 1.65 ± 0.088 | 1.4 ± 0.1 | 1.83 ± 0.14 | 1.18 ± 0.13
STYKHDRGIANIRNNIE [SRB4] | 3.41 ± 0.19 | 3.27 ± 0.14 | 2.95 ± 0.14 | 3.49 ± 0.13
AMLINLILRDFLNNGEV [RPN3] | 2.67 ± 0.086 | 2.56 ± 0.076 | 2.59 ± 0.066 | 2.84 ± 0.076
CVYSGLIPDGRHLVNRG [PRE10] | – | 1.82 ± 0.22 | 2.1 ± 0.14 | –
QKRIENGGNSVITLAEY [SRP68] | 2.47 ± 0.076 | 2.89 ± 0.081 | 2.9 ± 0.069 | 3.22 ± 0.1
ITQMRVNDEEEHKQLVA [RPC82] | 3.29 ± 0.13 | 2.92 ± 0.099 | 2.82 ± 0.13 | 3.34 ± 0.16
EDILYYSTCPSETDLND [SRB8] | 2.29 ± 0.12 | 1.56 ± 0.099 | 2.14 ± 0.11 | 1.92 ± 0.1
PPTDTNVEESVSKADIL [POP5] | 3.21 ± 0.12 | 3.18 ± 0.12 | 2.79 ± 0.069 | 3.05 ± 0.095
SNDSQSHFDYNTLEFII [YCG1] | 2.52 ± 0.2 | 2.78 ± 0.19 | – | 2.89 ± 0.14
AARKAEKAKSAGTQSSK [RPL24A] | 3.13 ± 0.099 | 3.11 ± 0.068 | 3.22 ± 0.082 | 3.29 ± 0.043
FMDETAVALAASDLVLI [SNU114] | 2.55 ± 0.062 | 2.74 ± 0.076 | 2.69 ± 0.11 | 2.21 ± 0.051
VNISAVDNTTEQSNSRK [YCG1] | 3.26 ± 0.23 | 2.35 ± 0.28 | 3.1 ± 0.25 | –
ESKQDGLSILFLTGQFA [YML103C/NUP188] | 2.79 ± 0.078 | 2.57 ± 0.062 | 2.88 ± 0.059 | 2.72 ± 0.063

Sequence | protein stability index (doa10∆) | protein stability index (pdr5∆) | protein stability index (san1∆) | protein stability index (ubr1∆)
MAKQLIRLANESSELNK [CSN12] | 3 ± 0.08 | 2.62 ± 0.064 | 2.96 ± 0.079 | 2.63 ± 0.073
RSDLQSKIQEIESIRSC [YIL149C/MLP2] | 1.89 ± 0.058 | 2.79 ± 0.09 | 2.67 ± 0.099 | 2.52 ± 0.089
GVLLRDAHGVTQARVIT [RPS13] | 2.4 ± 0.075 | 2.57 ± 0.093 | 2.85 ± 0.14 | 2.27 ± 0.082
TSVIQDLSEKILNDIET [BRR2] | 2.89 ± 0.1 | 3.3 ± 0.11 | 3.21 ± 0.061 | 3.09 ± 0.076
SSPLGFEETKLSTTPTK [SIR4] | 2.57 ± 0.053 | 2.71 ± 0.063 | 2.6 ± 0.054 | 2.67 ± 0.058
MAQRVTFRRRNPYNTRS [RPL34A] | 1.55 ± 0.043 | 1.82 ± 0.047 | 1.54 ± 0.072 | 1.77 ± 0.043
AIANTLLYLRLKNIYVS [PRP8] | 1.38 ± 0.048 | 1.53 ± 0.05 | 1.38 ± 0.084 | 1.18 ± 0.045
QHIKVFKLDKDTSNWEL [YGL100W/SEH1] | 3.43 ± 0.15 | 3.15 ± 0.12 | 3.2 ± 0.16 | 3.62 ± 0.29
LQYYILEYMNTARINNR [RRI2] | 2.12 ± 0.15 | 1.37 ± 0.097 | 1.96 ± 0.14 | 1.93 ± 0.12
KGVLLYGPPGTGKTLLA [RPT4] | 2.51 ± 0.045 | 2.58 ± 0.041 | 2.57 ± 0.048 | 2.29 ± 0.035
ILKWVQWSRIVLQNVFK [MED1] | 2.98 ± 0.087 | 3.13 ± 0.12 | 3.29 ± 0.067 | 3.07 ± 0.068
ELKKYMDKKILLNINGS [SMX2] | 1.88 ± 0.059 | 2.25 ± 0.062 | 2 ± 0.094 | 2 ± 0.045
AAEQQSKAFKESSDFGA [SRP54] | 2.8 ± 0.057 | 2.3 ± 0.049 | 2.58 ± 0.082 | 2.34 ± 0.057
LIQSYSLLDKPDEAIEK [FAS1] | 2.82 ± 0.087 | 2.75 ± 0.084 | 2.14 ± 0.087 | 2.79 ± 0.082
NQLLAALVAYTPTDVIG [RRP6] | 1.66 ± 0.045 | 1.39 ± 0.048 | 1.25 ± 0.072 | 1.24 ± 0.032
FRVQSQSNYGIYSSDAQ [NUT1] | 2.03 ± 0.053 | 2.51 ± 0.059 | 1.8 ± 0.074 | 2.42 ± 0.1
QTDAIKSDEAKWKPVLS [RPN5] | 2.62 ± 0.14 | 2.99 ± 0.19 | 3.27 ± 0.075 | 3.2 ± 0.16
EILEKCAEGIFVVKLDT [GAL11] | – | – | – | 3.72 ± 0.28
DHLKLVSLFSNLRHERN [YIL149C/MLP2] | 2.41 ± 0.092 | 2.67 ± 0.19 | 2.5 ± 0.26 | 2.44 ± 0.097
